# Laboratory results published in the supplement of paper PMC7877785.
# ± gives the uncertainty stated by the source.
# Experiment: self-splicing fitness, log relative to wild type (ln ratio); higher = more splicing; Tetrahymena group I intron in knt gene, E. coli kanamycin selection, DiMSum; sequences stand for … in CUCUCU…GGAGGGAAAAGUUAUCAGGCAUGCACCUGGUAGCUAGUCUUUAAACCAAUAGAUUGCAUCGGUUUAAAAGGCAAGACCGUCAAAUUGCGGGAAAGGGGUCAACAGCCGUUCAGUACCAAGUCUCAGGGGAAACUUUGAGAUGGCCUUGCAAAGGGUAUGGUAAUAAGCUGACGGACAUGGUCCUAACCACGCAGCCAAGUCCUAAGUCAACAGAUCUUCUGUUGAUAUGGAUGCAGUUCACAGACUAAAUGUCGGUCGGGGAAGAUGUAUUCUUCUCAUAAGAUAUAGUCGGACCUCUCCUUAAUGGGAGCUAGCGGAUGAAGUGAUGCAACACUGGAGCCGCUGGGAACUAAUUUGUAUGCGAAAGUAUAUUGAUUAGUUUUGGAGUACUCGUGGUCG
# Procedure, shortened: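 Pooled colonies went to amplicon sequencing on an Illumina HiSeq 2500 after six replicate transformations. The plates were LB agar with 100 μg/mL carbenicillin, 50 μM IPTG and 0.2% rhamnose, with or without 25 μg/mL kanamycin, incubated overnight at 37°C or 30°C. The E. coli BL21(DE3) library had all eight P1ex-region intron nucleotides randomised, the intron placed in the knt kanamycin-resistance gene on pET-22b(+). DiMSum fitness is the error-weighted combination of replicate fold changes, kanamycin against none, normalised to wild type.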
Sequence,self-splicing fitness (ln) (30 °C),self-splicing fitness (ln) (37 °C)
CGCCAGCAAUAUUACGUGAU,-3.42 ± 0.088,-2.27 ± 0.11
GCGUAGCAAUAUUACGGCUG,-3.74 ± 0.42,-1.39 ± 0.49
ACGGAGCAAUAUUACGUAUC,-2.75 ± 0.2,-2.52 ± 0.29
ACUUAGCAAUAUUACGCUAG,-2.35 ± 0.11,-1.72 ± 0.12
GCGAAGCAAUAUUACGUCCU,-0.0766 ± 0.14,0.569 ± 0.17
CCGCAGCAAUAUUACGUAUG,-1.31 ± 0.055,-0.172 ± 0.068
CCGUAGCAAUAUUACGAAAU,-3.61 ± 0.32,-2.7 ± 0.34
UGUCAGCAAUAUUACGACGU,-1.31 ± 0.098,-0.968 ± 0.14
UAUAAGCAAUAUUACGUCAG,-1.22 ± 0.11,-0.547 ± 0.17
ACUAAGCAAUAUUACGCAGC,-2.94 ± 0.36,-0.621 ± 0.18
AAAAAGCAAUAUUACGUGUA,-1.78 ± 0.089,-1.33 ± 0.085
ACCAAGCAAUAUUACGAGGG,-2.88 ± 0.15,-1.49 ± 0.12
UGAUAGCAAUAUUACGCCGU,-4.2 ± 0.43,-2.01 ± 0.2
AAUAAGCAAUAUUACGAUCC,-0.993 ± 0.21,-0.374 ± 0.24
CAGGAGCAAUAUUACGGUCU,-3.85 ± 0.22,-2.84 ± 0.17
GUUCAGCAAUAUUACGAUCA,-1.81 ± 0.19,-0.536 ± 0.14
GAUAAGCAAUAUUACGAUCU,0.509 ± 0.17,-1.55 ± 0.19
CGGCAGCAAUAUUACGGGAA,-2.49 ± 0.15,-1.97 ± 0.16
UAUGAGCAAUAUUACGGACA,-2.64 ± 0.35,-2.28 ± 0.29
UACUAGCAAUAUUACGCCAG,-0.0426 ± 0.17,-1.03 ± 0.29
UCAAAGCAAUAUUACGUCGU,-2.23 ± 0.11,-1.28 ± 0.11
CAGCAGCAAUAUUACGAUCU,-3.54 ± 0.35,-2.38 ± 0.19
UCACAGCAAUAUUACGGUGG,-3.45 ± 0.14,-2.71 ± 0.18
UGUGAGCAAUAUUACGCCUC,-1.83 ± 0.41,–
UCCGAGCAAUAUUACGCGGC,-3.97 ± 0.35,-2.46 ± 0.29

Sequence,self-splicing fitness (ln) (30 °C),self-splicing fitness (ln) (37 °C)
GGGGAGCAAUAUUACGCGCA,-2.35 ± 0.22,-1.32 ± 0.25
ACCAAGCAAUAUUACGGCGC,0.119 ± 0.092,-0.413 ± 0.11
GCUCAGCAAUAUUACGGCCA,-1.77 ± 0.15,-0.805 ± 0.16
UGGAAGCAAUAUUACGUCUC,–,-2.47 ± 0.32
CGCCAGCAAUAUUACGAGAA,-2.14 ± 0.42,-2.75 ± 0.38
AUAAAGCAAUAUUACGGUAC,-1.89 ± 0.11,-2.6 ± 0.17
UUACAGCAAUAUUACGCGCC,-2.36 ± 0.14,-0.896 ± 0.2
UUCCAGCAAUAUUACGAGAA,-1.79 ± 0.17,-0.442 ± 0.16
GCAAAGCAAUAUUACGAUUU,-0.938 ± 0.06,-0.449 ± 0.082
AGGUAGCAAUAUUACGUGGA,-3.365 ± 0.027,-2.61 ± 0.037
AUUAAGCAAUAUUACGACGU,0.564 ± 0.087,0.495 ± 0.093
GACCAGCAAUAUUACGUAAA,0.0993 ± 0.067,-0.108 ± 0.094
AGCUAGCAAUAUUACGUGUG,-2.2 ± 0.06,-1.7 ± 0.079
AACAAGCAAUAUUACGUAAU,-1.98 ± 0.074,-0.78 ± 0.08
GCUUAGCAAUAUUACGGUGG,-2.24 ± 0.19,-2.38 ± 0.28
CAGCAGCAAUAUUACGUGCA,-1.03 ± 0.061,-0.673 ± 0.066
GCGAAGCAAUAUUACGCAGG,-3.06 ± 0.27,-2.39 ± 0.23
GGGCAGCAAUAUUACGUGUC,-3.82 ± 0.17,-2.53 ± 0.2
AAGUAGCAAUAUUACGGAUU,-0.677 ± 0.092,-0.751 ± 0.11
ACCCAGCAAUAUUACGCGCA,-0.821 ± 0.061,-0.299 ± 0.075
CGUCAGCAAUAUUACGCUGU,-4.26 ± 0.33,-1.51 ± 0.27
CUCCAGCAAUAUUACGGCCA,-2.94 ± 0.25,–
CGAGAGCAAUAUUACGGGAU,-2.56 ± 0.13,-2.53 ± 0.23
AUCAAGCAAUAUUACGGUAG,–,-2.53 ± 0.39
UCCUAGCAAUAUUACGUGGU,-2.53 ± 0.1,-1.38 ± 0.096

Sequence,self-splicing fitness (ln) (30 °C),self-splicing fitness (ln) (37 °C)
GUGAAGCAAUAUUACGAUCG,-0.499 ± 0.097,0.218 ± 0.1
UCACAGCAAUAUUACGUAAG,-1.98 ± 0.083,-1.33 ± 0.1
CCAAAGCAAUAUUACGUGAU,-3.5 ± 0.21,-3.14 ± 0.24
AUGAAGCAAUAUUACGGGUU,-1.62 ± 0.11,-1.07 ± 0.12
UGUCAGCAAUAUUACGUUGA,-3.77 ± 0.23,-2.47 ± 0.19
GAUCAGCAAUAUUACGGGAU,-3.01 ± 0.12,-1.18 ± 0.11
AGGCAGCAAUAUUACGCUAG,-3.53 ± 0.25,-3.04 ± 0.27
CCCGAGCAAUAUUACGGAGG,-3.84 ± 0.21,-2.57 ± 0.19
UCCAAGCAAUAUUACGACUU,-3.57 ± 0.17,-2.54 ± 0.18
CUAUAGCAAUAUUACGUUCA,-2.87 ± 0.24,-2.93 ± 0.35
GAGUAGCAAUAUUACGGACU,-0.25 ± 0.072,-0.487 ± 0.096
GAACAGCAAUAUUACGCGUG,-0.931 ± 0.053,-0.34 ± 0.059
UGCCAGCAAUAUUACGCUGC,-3.85 ± 0.31,-2.47 ± 0.28
GAGAAGCAAUAUUACGGGCU,-2.57 ± 0.14,-1.16 ± 0.14
CUGGAGCAAUAUUACGAUUG,-1.87 ± 0.12,0.00165 ± 0.13
UCGCAGCAAUAUUACGUUAA,-2.18 ± 0.12,-1 ± 0.096
GAAUAGCAAUAUUACGAAAG,-3.86 ± 0.41,-2.55 ± 0.27
GUGAAGCAAUAUUACGAGUG,-0.702 ± 0.094,-0.702 ± 0.13
ACAAAGCAAUAUUACGGUGG,-3.64 ± 0.11,-2.07 ± 0.12
GAAAAGCAAUAUUACGACCC,0.23 ± 0.13,-0.182 ± 0.18
AACCAGCAAUAUUACGAGAC,-3.67 ± 0.39,-1.71 ± 0.18
GGUUAGCAAUAUUACGGUAA,-1.02 ± 0.15,-0.716 ± 0.14
GGAGAGCAAUAUUACGUCCA,-2.78 ± 0.2,-0.872 ± 0.18
CGAGAGCAAUAUUACGGGGC,-2.35 ± 0.31,-2.61 ± 0.39
GAAAAGCAAUAUUACGAUUA,-0.531 ± 0.07,-0.0202 ± 0.076

Sequence,self-splicing fitness (ln) (30 °C),self-splicing fitness (ln) (37 °C)
AUAUAGCAAUAUUACGAGAG,–,-2.29 ± 0.22
GAGGAGCAAUAUUACGUGUU,-3.03 ± 0.21,-3.82 ± 0.42
CGCAAGCAAUAUUACGAAUA,-3.27 ± 0.21,-2.4 ± 0.2
UCUAAGCAAUAUUACGCAAG,-2.85 ± 0.4,-1.86 ± 0.34
UCGGAGCAAUAUUACGCCUG,-0.894 ± 0.26,–
AGACAGCAAUAUUACGGUCG,-1.02 ± 0.093,-0.102 ± 0.12
CCAUAGCAAUAUUACGACGG,-3.41 ± 0.14,-1.67 ± 0.13
GUCUAGCAAUAUUACGAACU,-1.9 ± 0.2,-1.12 ± 0.19
AGAUAGCAAUAUUACGGAAU,-2.07 ± 0.15,-0.731 ± 0.14
UACCAGCAAUAUUACGCUAA,-1.14 ± 0.081,-0.492 ± 0.092
GUCGAGCAAUAUUACGUUGU,–,-2.78 ± 0.37
AGUUAGCAAUAUUACGCUUG,–,-1.83 ± 0.23
GCUGAGCAAUAUUACGAGAG,-2.49 ± 0.23,-2.41 ± 0.22
CAGCAGCAAUAUUACGAUAU,-3.29 ± 0.24,-2.3 ± 0.19
ACGAAGCAAUAUUACGGAAA,-2.38 ± 0.17,-3.02 ± 0.21
UCAAAGCAAUAUUACGCGUC,-3.15 ± 0.14,-2.89 ± 0.18
AUAGAGCAAUAUUACGUUCG,-0.386 ± 0.077,-0.257 ± 0.092
GGUAAGCAAUAUUACGGAUU,-0.823 ± 0.094,-0.646 ± 0.11
AACCAGCAAUAUUACGUACG,-1.42 ± 0.063,-0.431 ± 0.067
AUGUAGCAAUAUUACGUUAA,-3.07 ± 0.22,-2.3 ± 0.14
CGCGAGCAAUAUUACGAACU,-1.75 ± 0.18,-0.234 ± 0.23
CACCAGCAAUAUUACGUACC,-4.01 ± 0.43,-1.84 ± 0.33
